Assay results taken from the supplement of paper PMC9170038.

Tested on: MS2 coat protein
Experiment: apparent KD of MS2 coat protein; designed switch direction (-1 OFF switch, 1 ON switch): -1; higher = weaker reporter binding
Procedure, shortened: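 Each step of the titration lasted 0.8–1.5 h at the lowest concentration and 10–20 min at the highest. The protein, SNAP-549-labelled MS2 coat protein, went from 0.7 or 1.5 nM doubling to 3 µM over RNA switches transcribed on Illumina chips by stalled E. coli RNA polymerase. Normalised cluster fluorescence was curve-fitted, and the per-design median over clusters is given as apparent KD.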

[1] = Eterna round: R95, input ligand: microRNA oligo, concentration not stated
[2] = Eterna round: R95, input ligand: FMN 200 uM
[3] = Eterna round: R95, input ligand: none
[4] = input ligand: microRNA oligo, concentration not stated

Sequence	apparent KD of MS2 coat protein [1]	apparent KD of MS2 coat protein (input ligand: FMN 200 uM)	apparent KD of MS2 coat protein (input ligand: none)	apparent KD of MS2 coat protein [2]	apparent KD of MS2 coat protein [3]	apparent KD of MS2 coat protein [4]
AAGUAUAGAGGAUAUAGUGAGUACUACAUGAGGAUCACCCAUGUUCUUCAAAGCGUAUUUCUAGAAGGCUAAUGAA [EX-5 Malc#14] (puzzle: Exclusion 5)	0.0433 µM	–	–	–	–	–
UGUAUAGGAGUGAGGAUAUGGAAACUGGAAAAGGACCAGAAGGCACAUGAGGAUCACCCAUGUGGUUCUCAAGA [Eternabot (Original) Solution 50] (Eterna round: R97, puzzle: Brourd's mod of Exclusion 4)	–	1.21 µM	0.373 µM	–	–	–
AGCUAAAUAGGAUAUGCCCGGGAUAACAUGAGGAUCACCCAUGUGACCGAUUCAUGUCCUGCAGAAGGAUUUGGGA [Mod of ViennaUCT 5 - Jieux - Exclusion 5] (Eterna round: R97, puzzle: Exclusion 5)	–	0.017 µM	0.013 µM	–	–	–
GUGCGUGGCUAGGAUAUUGAGGAAUUUAGUCAGCGAGAAGGAGCCACAUGAGGAUCACCCAUGUGGUGAAGCUC [salish99_ex6_r4_001] (Eterna round: R97, puzzle: Exclusion 6)	–	0.0702 µM	0.0179 µM	–	–	–
GAAAAGGUAGGAUAUACGAGAAGAAAGGGUAGAGAAGAAACACAUGAGGAUCACCCAUGUAGAAGGACCAAAAG [salish99_ex2_r3_099] (puzzle: Exclusion 2)	0.0299 µM	–	–	0.0667 µM	0.0299 µM	–
GUCCUACAUGAGGAUCACCCAUGUGAGGAUAUGCGGUUAGCUGCUAGGUAGUUAGUAUGCAGAAGGCGCGUGAA [EX1 #80] (Eterna round: R97, puzzle: Exclusion 1)	–	0.0159 µM	0.014 µM	–	–	–
AUCCUCUAGAAGGAUAUGCAGGUUGAAUAAACCGCAGAAGGUUUUACAUGAGGAUCACCCAUGUGUAUAACACA [Eternabot (L2) Solution 100] (Eterna round: R97, puzzle: Exclusion 6)	–	0.23 µM	0.165 µM	–	–	–
ACAUGUAAUGCAGGAUAUCGGACACAUGAGGAUCACCCAUGUGACCAGAGGAAUUGCUAAGAGUCUGAGAAGGGUAUGUACAUG [Ex NG2 #52] (Eterna round: R96, puzzle: Exclusion NG 2)	–	0.0232 µM	0.019 µM	–	–	0.0129 µM
GGGAUGUCAGGAUAUGAUUAGCACGGCGGUAGCCGCGUUACUUAGAAGGGACAUGAGGAUCACCCAUGUACCGA [EX4 B.6] (Eterna round: R97, puzzle: Exclusion 4)	–	0.0186 µM	0.0169 µM	–	–	–
AUGAGGUUAGGAUAUACAUGAGGAUCACCCAUGUUGAAGGGUUAGGUAGGCGGAGCUGGUAGAAGGAACGGAGC [JR_Exclu3_Sub057] (Eterna round: R96, puzzle: Exclusion 3)	–	0.0443 µM	0.0553 µM	–	–	0.0319 µM
GUGUAGAUAGGAUAUGCUUAGAGCUUACGAAAGUAGGCUCUACAUGAGGAUCACCCAUGUAGAAGGGUCUACAC [Dot plot directed A v16] (puzzle: Exclusion 2)	0.0249 µM	–	–	–	–	–
CGGUGCUCGUGGAAACAUGAGGAUCACCCAUGUUGAGUUAGCGAGGAUAUCGGUAACACAUAUCACGAGAAGGCGCGAACCAGA [Ex NG3 #31] (Eterna round: R96, puzzle: Exclusion NG 3)	–	0.0233 µM	0.016 µM	–	–	0.0119 µM
AGUGCAUGAGGAUAUGCAAAUCGAAAGACGCAAGGGCAAUCACAUGAGGAUCACCCAUGUAGAAGGCGUCGCAC [Eternabot (Original) Solution 17] (Eterna round: R97, puzzle: Exclusion 2)	–	0.0307 µM	0.0319 µM	–	–	–
ACUCUUCUUGUUAGGAUAUGCAUCGGGCUUCCGCAGCAGAAGGAACAUGAGGAUCACCCAUGUCAAAUAAAAUC (Eterna round: R97, puzzle: Brourd's mod of Exclusion 4)	–	0.141 µM	0.0208 µM	–	–	–
CAGCGUUCAGGAUAUACAUGAGGAUCACCCAUGUGUUCCAGCUAGGAAACUAGCAAAUGUAGAAGGGAACGCUG [Mat - Exclusion 3 - JL Mod - D1] (Eterna round: R97, puzzle: Exclusion 3)	–	0.463 µM	0.125 µM	–	–	–
GUAAACGUAUAGGAUAUUUCAGGUCAAAGCUGCAAAGAAGGAUACACAUGAGGAUCACCCAUGUGGUCAAUAAA [Mod of Quesina 23 - Jieux - Exclusion 6] (Eterna round: R97, puzzle: Exclusion 6)	–	0.0422 µM	0.0204 µM	–	–	–
GCCAGAGCAGGAUAUUCAGUAUCACACAUGAGGAUCACCCAUGUCUAUCGAAAGAUAGAGGGAGAAGGGCUCUGGC [Mat - Exclusion 5 - Eli mod - D95] (puzzle: Exclusion 5)	0.105 µM	–	–	0.0284 µM	0.118 µM	–
UAUAACCAAGGAUAUACAUGAGGAUCACCCAUGUAAUAUAAUAUAAUAUAAAUAAAAUGUAGAAGGUGGGAUAU (Eterna round: R97, puzzle: Exclusion 3)	–	0.0266 µM	0.0314 µM	–	–	–
CCAGCGUAUGUUAGGAUAUGCUGGUCGAAAGAUCAGCAGAAGGAACAUGAGGAUCACCCAUGUGGAAAAGUUGG [Mod of JL 25 - Jieux - Brourd's mod of Exclusion 4] (Eterna round: R97, puzzle: Brourd's mod of Exclusion 4)	–	0.184 µM	0.0304 µM	–	–	–
CUGUGCUGACGGAGAUCCAACAUGAGGAUCACCCAUGUCUCAAAAGCUUUUUGCUCGUCUUAUCCUCCUCAGUACAC [Mat - Sensor, turn-off var - Eli Mod - D56] (Eterna round: R97, puzzle: Sensor, turn-off variant 1)	–	0.0177 µM	0.0172 µM	–	–	–
UUUAAAUGAGGAUAUAGGAUCUUAGACAUGAGGAUCACCCAUGUGAAAUCAGACCUAGUCCUAGAAGGCGUAUGAC [Eternabot (L1) Solution 100] (Eterna round: R97, puzzle: Exclusion 5)	–	0.0135 µM	0.0124 µM	–	–	–
ACUUACUGAGGAUAUACAUAGAUUUACAUGAGGAUCACCCAUGUUCCUCUAUGUAUAUAUGUAGAAGGCAGAAGAG [Mat - Exclusion 5 - JL Mod - D35] (Eterna round: R97, puzzle: Exclusion 5)	–	0.0563 µM	0.0216 µM	–	–	–
GCAUGUCUUAAGGAUAUGCCUAGGCGUGAGCCGGCAGAAGGUAAGACAUGAGGAUCACCCAUGUUUUCCUAAAA [jl-ex6-4.30 ViennaUCT mod] (Eterna round: R97, puzzle: Exclusion 6)	–	0.28 µM	0.0512 µM	–	–	–
CUCCUCAUGGCGCCUAAACACAUGAGGAUCACCCAUGUACAGGCUUUUUGCCGUCUUAUAAUAAAACCGAGGAUACG [Raaen] (puzzle: Sensor v3, turn-off variant 1)	0.167 µM	–	–	0.0763 µM	0.149 µM	–
CGUGUACGAGGAUAUAGAUUAGAUGACAUGAGGAUCACCCAUGUGAUCAAUCUAUUUAGUUUAGAAGGUGUACAUG [JR_Ex5_Sub051] (Eterna round: R97, puzzle: Exclusion 5)	–	0.0161 µM	0.0125 µM	–	–	–
